Source: publication PMC5201023, “An unconventional interaction between Dis1/TOG and Mal3/EB1 in fission yeast promotes the fidelity of chromosome segregation” (Journal of Cell Science, 2016)

B1: Dis1–eGFP (full-length Dis1 with eGFP fused to its C-terminus) (natural protein, Schizosaccharomyces pombe, UniProt Q09933 1-882, looked up)
chain: MELDDFNSRILSQIFDKSWKVRFEAYESLLHALNRALDDSDVCFQPWIHDPALWKQGLCDSNVPTQEHAVKSLRCFLDKSRQKGVNSAKSFVVAPLLEKCLPSPRQSIRDASHQALLILAKSDALDYVLEGLFSAARVKHPKQAVASIKELNSLLENFGIPALSPIPFYKLIPTLFAQSDKNIRQEASNLSITLYAWVGNAFKTHVFPQLKQIQVSDLEASFQNVTSRTTTGGHISNSLNTQEVVLPSFSSNAKPKPHLSSKSSSQGNTLQRSTSSFSTPNRKVSQPSDFSASPSRSIVSPAKNIVGSTPVDVLSKLTPEFHTALSSPKWKDRKEALESMVPVCSNPVYQEGDYSELLRVIAKSLKDANVVVVGVAALLLTHIAKALRKGFLPYTGIVLPSLFDRFKERKSSLVHSLLDAANAIFESCGLNDIMDETLEFLKHKNPQVKTETLRWLNRCLQLTDVCPPRASLETLCSLCVTLINDTFEPVRMATTNVLATLVQIFSQPVLSKYIVGLDPKKLPKILELSKDITVNAHPNQPSRPRLPRVASPLKTSPVKLAVTPQAPSPLPSSNPSQASLTEESLSTRSSPTKPSTTSLRSQSLVNRFASSTLKAPSSSSKGVSNAASSKQSFPSSPSISKKLETSRLSTKKLPGSTMKAASALKEYPQQQSMKSGGEKQDNLVTITMSEKVELDLLREEKAIRQVQEAEDALERERLFREINDLQIQNAEMKEQVYEKESTISQKEVEITSLRNEKDRLSTRLQQVLLELEKQHETNEEAMDIDLKVPESGAIGRVTTRATATTAMDESGNAGMVSSGIHSVSTKPSSYGTRRSLAGSMLQKPTQFSRPSFMFSPEARDNWRESHDLSSHLWEQIQRMKKA
B2: GST–Mal3 (GST-tagged Mal3) (natural protein, Schizosaccharomyces pombe, UniProt Q10113 1-308, looked up)
chain: MSESRQELLAWINQVTSLGLTRIEDCGKGYAMIQIFDSIYQDIPLKKVNFECNNEYQYINNWKVLQQVFLKKGIDKVVDPERLSRCKMQDNLEFVQWAKRFWDQYYPGGDYDALARRGNRGPANTRVMNSSAGATGPSRRRQVSSGSSTPSMTKSSANNNNVSSTANTAAVLRAKQAQQQITSLETQLYEVNETMFGLERERDFYFNKLREIEILVQTHLTTSPMSMENMLERIQAILYSTEDGFELPPDQPADLTTALTDHDTNNVAEEAQMTDLKDSETQRVPSAPDFVHARLQSLEVDDDENITF
notes: Mal3, the sole EB1 homologue of fission yeast; also called Mal3 FL
B3: Dis1 C2–eGFP (amino acids 690–882) (domain or fragment, Schizosaccharomyces pombe, UniProt Q09933 690-882, looked up)
chain: EKVELDLLREEKAIRQVQEAEDALERERLFREINDLQIQNAEMKEQVYEKESTISQKEVEITSLRNEKDRLSTRLQQVLLELEKQHETNEEAMDIDLKVPESGAIGRVTTRATATTAMDESGNAGMVSSGIHSVSTKPSSYGTRRSLAGSMLQKPTQFSRPSFMFSPEARDNWRESHDLSSHLWEQIQRMKKA
notes: also called Dis1-C2–eGFP (WT); source: bacterially expressed, purified (as the other Dis1–eGFP constructs)
B7: Mal3 (recombinant full-length, without fluorescent protein) (natural protein, Schizosaccharomyces pombe, UniProt Q10113 1-308, looked up)
chain: MSESRQELLAWINQVTSLGLTRIEDCGKGYAMIQIFDSIYQDIPLKKVNFECNNEYQYINNWKVLQQVFLKKGIDKVVDPERLSRCKMQDNLEFVQWAKRFWDQYYPGGDYDALARRGNRGPANTRVMNSSAGATGPSRRRQVSSGSSTPSMTKSSANNNNVSSTANTAAVLRAKQAQQQITSLETQLYEVNETMFGLERERDFYFNKLREIEILVQTHLTTSPMSMENMLERIQAILYSTEDGFELPPDQPADLTTALTDHDTNNVAEEAQMTDLKDSETQRVPSAPDFVHARLQSLEVDDDENITF
notes: Mal3, the sole EB1 homologue of fission yeast; also called unlabelled Mal3; source: bacterially expressed, purified (as in Maurer et al., 2011)

Key:
[1] = target: B7; test: cell-based or functional assay
[2] = target: B1; test: pull-down; GST pulldown: 1 µM GST, GST–Mal3 or truncated GST–Mal3 on glutathione–Sepharose beads with 0.5 µM Dis1–eGFP proteins; BRB80 with 85 mM KCl, 0.01% Brij-35, 1 mM DTT; 1 h at 4°C; details: both partners purified
[3] = target: B2; test: pull-down; peptide competition: 1 µM GST–Mal3 on glutathione beads pre-incubated 30 min with Dis1 peptide (0, 0.5, 2.5, 5.0, 50, 100 µM), then 0.5 µM Dis1 C2–eGFP for 1 h; details: both partners purified
[4] = target: B7; test: TIRF microscopy on dynamic microtubules in vitro; Cy5-labelled MTs grown from immobilised GMPCPP-stabilised seeds; BRB80 with 85 mM KCl, 1 mM GTP, 10 mM β-mercaptoethanol, 0.1% Brij-35, 0.1% methylcellulose; 30±1°C; 10-20 nM Dis1–eGFP proteins with or without 20 nM-1 µM Mal3; details: both partners purified
[5] = target: T1, Dis1 C1–eGFP (amino acids 520–882) (Schizosaccharomyces pombe, UniProt Q09933 520-882); test: pull-down; GST pulldown: 1 µM GST, GST–Mal3 or truncated GST–Mal3 on glutathione–Sepharose beads with 0.5 µM Dis1–eGFP proteins; BRB80 with 85 mM KCl, 0.01% Brij-35, 1 mM DTT; 1 h at 4°C; details: both partners purified
T1 construct: source: bacterially expressed, purified (as the other Dis1–eGFP constructs)
T1 sequence (looked up): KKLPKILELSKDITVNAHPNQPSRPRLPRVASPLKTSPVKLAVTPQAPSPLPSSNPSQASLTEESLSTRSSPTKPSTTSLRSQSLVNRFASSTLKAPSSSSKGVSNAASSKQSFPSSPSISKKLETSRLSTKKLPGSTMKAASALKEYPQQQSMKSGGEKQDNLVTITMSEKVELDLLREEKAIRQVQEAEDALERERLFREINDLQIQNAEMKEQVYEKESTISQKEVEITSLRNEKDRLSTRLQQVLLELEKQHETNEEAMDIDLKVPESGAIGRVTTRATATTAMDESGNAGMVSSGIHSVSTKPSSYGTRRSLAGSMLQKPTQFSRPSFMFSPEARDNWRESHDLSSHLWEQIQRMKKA

[6] = target: B3; test: pull-down; Mal3 (amino acids 174–247) mixed with wild-type or LAPA Dis1-C2–eGFP and pulled down by GFP trap beads; details: both partners purified
[7] = target: T2, Dis1–HA (full-length Dis1 with a hemagglutinin tag at its C-terminus) (Schizosaccharomyces pombe, UniProt Q09933 1-882); test: SEC; analytical gel filtration on Superose 6 10/300; 25 mM K-HEPES pH 7.5, 200 mM KCl, 1 mM EGTA, 1 mM MgCl2; 5 µM Dis1–eGFP with 10 µM tubulin, or 5 µM Dis1–HA with 20 µM Mal3; details: both partners purified
T2 construct: Dis1, fission yeast (S. pombe) member of the XMAP215/TOG family; cDNA optimised for E. coli codons; also called recombinant Dis1 with an HA tag; source: bacterially expressed, purified (IgG Sepharose, Precision protease); not shown: HA, C-terminal, kept
T2 sequence (looked up): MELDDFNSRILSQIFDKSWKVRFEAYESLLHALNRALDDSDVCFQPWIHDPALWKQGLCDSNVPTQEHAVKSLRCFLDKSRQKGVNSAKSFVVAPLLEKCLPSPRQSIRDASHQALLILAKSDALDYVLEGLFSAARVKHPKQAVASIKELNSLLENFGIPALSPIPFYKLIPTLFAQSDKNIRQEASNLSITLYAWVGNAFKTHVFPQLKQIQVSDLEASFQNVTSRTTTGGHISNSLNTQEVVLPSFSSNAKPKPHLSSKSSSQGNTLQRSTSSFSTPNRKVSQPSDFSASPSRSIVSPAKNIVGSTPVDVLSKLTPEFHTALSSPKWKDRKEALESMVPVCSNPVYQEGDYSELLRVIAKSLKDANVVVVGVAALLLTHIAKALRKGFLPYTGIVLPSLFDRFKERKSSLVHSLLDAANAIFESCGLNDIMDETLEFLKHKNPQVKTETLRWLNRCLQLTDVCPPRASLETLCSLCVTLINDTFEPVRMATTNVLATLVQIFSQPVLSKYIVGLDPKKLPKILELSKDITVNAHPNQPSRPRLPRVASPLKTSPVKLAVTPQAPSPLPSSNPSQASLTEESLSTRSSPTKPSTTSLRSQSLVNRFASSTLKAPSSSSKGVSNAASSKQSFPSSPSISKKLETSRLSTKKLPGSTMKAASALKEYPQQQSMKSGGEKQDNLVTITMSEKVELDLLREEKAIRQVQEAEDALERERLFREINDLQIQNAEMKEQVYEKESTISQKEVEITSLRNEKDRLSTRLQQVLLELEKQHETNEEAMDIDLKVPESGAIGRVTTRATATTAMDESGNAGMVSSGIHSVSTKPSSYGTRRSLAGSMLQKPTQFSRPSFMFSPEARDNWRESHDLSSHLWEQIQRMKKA

[8] = target: B1; test: TIRF microscopy on dynamic microtubules in vitro; Cy5-labelled MTs grown from immobilised GMPCPP-stabilised seeds; BRB80 with 85 mM KCl, 1 mM GTP, 10 mM β-mercaptoethanol, 0.1% Brij-35, 0.1% methylcellulose; 30±1°C; 10-20 nM Dis1–eGFP proteins with or without 20 nM-1 µM Mal3; details: both partners purified

Binder: B1
- MT catastrophe frequency with Mal3 and Dis1 together, fold over tubulin alone (Mal3 alone ∼1.9-fold, Dis1 alone no effect) [1]: ~3.8 fold

Binder: B2
- binding result [2]: binds

Binder: B3
- binding result [3]: binds
- binding result [4]: binds

B4: Dis1 peptide (amino acids 833–852) (peptide, UniProt Q09933 833-852, looked up)
peptide: RRSLAGSMLQKPTQFSRPSF
notes: source: spotted on the peptide array membrane
- binding result [3]: binds

B5: GST–Mal3 C1 (amino acids 144–308) (domain or fragment, Schizosaccharomyces pombe, UniProt Q10113 144-308, looked up)
chain: SSGSSTPSMTKSSANNNNVSSTANTAAVLRAKQAQQQITSLETQLYEVNETMFGLERERDFYFNKLREIEILVQTHLTTSPMSMENMLERIQAILYSTEDGFELPPDQPADLTTALTDHDTNNVAEEAQMTDLKDSETQRVPSAPDFVHARLQSLEVDDDENITF
notes: also called C-terminal half
- binding result [5]: binds

B6: Mal3 C4 (amino acids 174–247; C-terminal part of the coiled-coil and the EBH domain) (domain or fragment, Schizosaccharomyces pombe, UniProt Q10113 174-247, looked up)
chain: AKQAQQQITSLETQLYEVNETMFGLERERDFYFNKLREIEILVQTHLTTSPMSMENMLERIQAILYSTEDGFEL
notes: Homodimer in both crystal structures; also called Mal3 EBH domain; source: purified (His-tag resin, TEV protease, gel filtration)
- binding result [6]: binds

Binder: B7
- binding result [7]: binds
- binding result [8]: binds
